The data set concerns the target Dlx3 (recombinant) (UniProt O60479 1-287). As to the kind of experiment: EMSA; anti-Dlx3 supershift; cold competitor 100x; EMSA as described previously (binding buffer not given); 5% native polyacrylamide gel in 1x TBE; 100-fold molar excess of unlabeled competitor. The following applies: protein: recombinant; label: 32P; blunt.

Experimental findings from PMC5589848, “BMP-2 induced Dspp transcription is mediated by Dlx3/Osx signaling pathway in odontoblasts” are described below.

Dlx3 (recombinant), sequence (O60479 whole entry): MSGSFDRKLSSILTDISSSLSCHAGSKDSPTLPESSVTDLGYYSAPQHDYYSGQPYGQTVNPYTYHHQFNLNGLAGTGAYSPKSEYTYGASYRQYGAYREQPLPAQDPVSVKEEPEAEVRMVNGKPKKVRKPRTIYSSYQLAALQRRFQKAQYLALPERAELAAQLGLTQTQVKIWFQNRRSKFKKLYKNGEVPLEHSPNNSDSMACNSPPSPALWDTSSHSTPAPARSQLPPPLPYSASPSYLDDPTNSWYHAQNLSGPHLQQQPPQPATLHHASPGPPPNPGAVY

B1: Dlx3II Oligo (dsDNA)
DNA 1: GTTGAGAAAATTATCAAACTGA
DNA 2: TCAGTTTGATAATTTTCTCAAC
Turning to B1, the binding result is reported as “binds”.

B2: Dlx3I Oligo (dsDNA)
DNA 1: GAGCTATTTAATTAAGTGAAA
DNA 2: TTTCACTTAATTAAATAGCTC
As for B2, the binding result was “binds”.
